Source: PMC2686405 (The Journal of Cell Biology, 2009)

Biological target: SNARE complex containing syntaxin-1A(2-253), synaptobrevin-2(29-93), SNAP-25(11-82) and SNAP-25(141-203) (rat | human, UniProt P32851;P63045;P60880)
Test: SEC

Chain of SNARE complex containing syntaxin-1A(2-253), synaptobrevin-2(29-93), SNAP-25(11-82) and SNAP-25(141-203) (P32851 2-253, chain 1 of 4): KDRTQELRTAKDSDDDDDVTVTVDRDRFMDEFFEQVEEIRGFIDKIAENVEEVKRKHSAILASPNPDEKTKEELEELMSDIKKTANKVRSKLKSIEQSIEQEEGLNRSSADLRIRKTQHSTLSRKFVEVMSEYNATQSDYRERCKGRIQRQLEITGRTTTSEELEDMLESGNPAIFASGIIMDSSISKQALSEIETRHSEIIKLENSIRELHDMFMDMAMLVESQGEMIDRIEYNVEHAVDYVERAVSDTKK
Chain of SNARE complex containing syntaxin-1A(2-253), synaptobrevin-2(29-93), SNAP-25(11-82) and SNAP-25(141-203) (P63045 29-93, chain 2 of 4): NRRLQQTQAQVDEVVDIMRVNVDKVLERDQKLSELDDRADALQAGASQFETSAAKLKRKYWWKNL
Chain of SNARE complex containing syntaxin-1A(2-253), synaptobrevin-2(29-93), SNAP-25(11-82) and SNAP-25(141-203) (P60880 11-82, chain 3 of 4): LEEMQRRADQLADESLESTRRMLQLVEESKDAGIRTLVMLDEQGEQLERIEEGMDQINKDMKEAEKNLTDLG
Chain of SNARE complex containing syntaxin-1A(2-253), synaptobrevin-2(29-93), SNAP-25(11-82) and SNAP-25(141-203) (P60880 141-203, chain 4 of 4): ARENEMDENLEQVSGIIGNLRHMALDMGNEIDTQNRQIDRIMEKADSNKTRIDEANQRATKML

B1: complexin-1(26-83) (domain or fragment)
chain: KDPDAAKKEEERQEALRQAEEERKAKYAKMEAEREVMRQGIRDKYGIKKKEEREAEAQ
B1: binds.
